Results as given in paper PMC4810302 (The Journal of Cell Biology, 2016).
Where no end group is shown, it is not given here.

Molecular target: His-G3BP1 (human, UniProt Q13283 1-466)
Experiment: pull-down

Chain of His-G3BP1 (Q13283 whole entry): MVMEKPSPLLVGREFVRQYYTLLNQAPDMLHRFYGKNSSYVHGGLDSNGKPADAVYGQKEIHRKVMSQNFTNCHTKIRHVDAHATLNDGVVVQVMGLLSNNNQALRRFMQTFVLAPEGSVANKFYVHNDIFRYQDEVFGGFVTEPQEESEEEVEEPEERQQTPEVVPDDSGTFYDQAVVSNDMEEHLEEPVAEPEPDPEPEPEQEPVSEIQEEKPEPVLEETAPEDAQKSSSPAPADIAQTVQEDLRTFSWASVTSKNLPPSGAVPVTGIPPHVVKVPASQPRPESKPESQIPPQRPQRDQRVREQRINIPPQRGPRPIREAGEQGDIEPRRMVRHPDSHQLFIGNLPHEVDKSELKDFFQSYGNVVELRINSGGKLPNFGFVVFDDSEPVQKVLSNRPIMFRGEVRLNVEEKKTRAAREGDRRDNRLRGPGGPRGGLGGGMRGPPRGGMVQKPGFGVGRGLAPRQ

YIFGDFSPDEFNQFFVTP-biotin [USP10_(8–25)WT peptide]: binds.
